Data reported in PMC9482650, “Quantitative fragmentomics allow affinity mapping of interactomes” (Nature Communications, 2022).

Tests used:
Experiment in all cases: holdup assay
Parameters in all cases: key: below the threshold = too weak to quantify, mostly under pKd 3.1 to 4
ARHGEF12, Q9NZN5-2 = target: ARHGEF12, Q9NZN5-2
DLG1_2, Q12959 = target: DLG1_2, Q12959
DLG2_2, Q15700 = target: DLG2_2, Q15700
DLG3_2, Q92796 = target: T1, DLG3_2, Q92796
T1 sequence (Q92796 221-321, limits assumed, looked up): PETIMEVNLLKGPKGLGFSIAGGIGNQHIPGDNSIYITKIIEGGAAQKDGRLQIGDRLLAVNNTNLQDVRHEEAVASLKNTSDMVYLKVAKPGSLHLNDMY

DLG4_1, P78352 = target: DLG4_1, P78352
Sequence of DLG4_1, P78352 (P78352 62-152): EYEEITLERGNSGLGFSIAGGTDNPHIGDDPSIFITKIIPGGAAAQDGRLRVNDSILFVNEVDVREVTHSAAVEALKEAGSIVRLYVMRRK

FRMPD1, Q5SYB0 = target: T2, FRMPD1, Q5SYB0
T2 sequence (Q5SYB0 52-145, limits assumed, looked up): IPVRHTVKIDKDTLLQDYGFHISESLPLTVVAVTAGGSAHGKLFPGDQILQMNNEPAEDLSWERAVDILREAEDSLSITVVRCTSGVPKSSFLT

FRMPD3, Q5JV73 = target: FRMPD3, Q5JV73
Sequence of FRMPD3, Q5JV73 (Q5JV73 12-100): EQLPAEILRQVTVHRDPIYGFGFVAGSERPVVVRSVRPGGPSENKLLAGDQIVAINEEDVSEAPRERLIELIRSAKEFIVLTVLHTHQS

GOPC, Q9HD26 = target: GOPC, Q9HD26
GORASP2, Q9H8Y8 = target: GORASP2, Q9H8Y8
GRIP1_3, Q9Y3R0 = target: T3, GRIP1_3, Q9Y3R0
T3 sequence (Q9Y3R0 247-346, limits assumed, looked up): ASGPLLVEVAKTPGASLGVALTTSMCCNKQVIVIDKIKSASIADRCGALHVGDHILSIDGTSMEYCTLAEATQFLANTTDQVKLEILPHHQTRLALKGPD

GRIP1_7, Q9Y3R0 = target: T4, GRIP1_7, Q9Y3R0
T4 sequence (Q9Y3R0 999-1096, limits assumed, looked up): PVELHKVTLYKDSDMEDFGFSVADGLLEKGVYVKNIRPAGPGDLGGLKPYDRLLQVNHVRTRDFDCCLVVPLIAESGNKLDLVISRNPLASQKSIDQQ

GRIP2_3, Q9C0E4 = target: GRIP2_3, Q9C0E4
Sequence of GRIP2_3, Q9C0E4 (Q9C0E4 238-339): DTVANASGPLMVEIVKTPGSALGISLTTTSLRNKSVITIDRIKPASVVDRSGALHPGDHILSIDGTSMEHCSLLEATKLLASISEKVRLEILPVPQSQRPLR

Inadl_4, Q8NI35 = target: Inadl_4, Q8NI35
Sequence of Inadl_4, Q8NI35 (Q8NI35 547-651): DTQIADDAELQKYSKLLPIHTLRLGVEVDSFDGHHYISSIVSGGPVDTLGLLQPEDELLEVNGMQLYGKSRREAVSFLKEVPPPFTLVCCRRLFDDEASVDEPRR

Inadl_5, Q8NI35 = target: Inadl_5, Q8NI35
Sequence of Inadl_5, Q8NI35 (Q8NI35 673-780): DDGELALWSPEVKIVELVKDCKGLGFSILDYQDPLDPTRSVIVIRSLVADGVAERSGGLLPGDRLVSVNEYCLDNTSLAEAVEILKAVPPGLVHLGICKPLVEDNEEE

Inadl_6, Q8NI35 = target: Inadl_6, Q8NI35
Sequence of Inadl_6, Q8NI35 (Q8NI35 1058-1167): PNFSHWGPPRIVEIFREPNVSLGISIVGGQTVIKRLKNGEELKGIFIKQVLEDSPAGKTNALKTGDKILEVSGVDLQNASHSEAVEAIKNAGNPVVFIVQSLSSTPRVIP

Inadl_9, Q8NI35 = target: Inadl_9, Q8NI35
Sequence of Inadl_9, Q8NI35 (Q8NI35 1530-1615): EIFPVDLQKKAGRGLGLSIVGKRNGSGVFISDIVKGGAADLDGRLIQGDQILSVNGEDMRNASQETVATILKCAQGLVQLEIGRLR

LAP2, Q96RT1 = target: LAP2, Q96RT1
Sequence of LAP2, Q96RT1 (Q96RT1 other isoform, or with tags, fused parts or gaps): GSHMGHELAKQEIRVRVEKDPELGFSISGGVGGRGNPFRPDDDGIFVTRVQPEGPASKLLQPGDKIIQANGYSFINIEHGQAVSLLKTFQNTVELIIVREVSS

LRRC7, Q96NW7 = target: T5, LRRC7, Q96NW7
T5 sequence (Q96NW7 1440-1537, limits assumed, looked up): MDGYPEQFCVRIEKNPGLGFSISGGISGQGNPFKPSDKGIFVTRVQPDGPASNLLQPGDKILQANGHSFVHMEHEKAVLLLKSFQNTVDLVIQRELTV

MAGI1_2, Q96QZ7 = target: MAGI1_2, Q96QZ7
Sequence of MAGI1_2, Q96QZ7 (Q96QZ7 456-580): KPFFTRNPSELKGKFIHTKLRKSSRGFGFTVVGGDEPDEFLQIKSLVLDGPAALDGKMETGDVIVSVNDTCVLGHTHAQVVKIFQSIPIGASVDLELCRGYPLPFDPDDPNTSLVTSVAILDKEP

MAGI2_5, Q86UL8 = target: MAGI2_5, Q86UL8
Sequence of MAGI2_5, Q86UL8 (Q86UL8 915-1017): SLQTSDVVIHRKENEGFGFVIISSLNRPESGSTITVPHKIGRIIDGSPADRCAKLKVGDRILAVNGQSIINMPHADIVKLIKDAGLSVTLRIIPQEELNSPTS

MPDZ_5, O75970 = target: T6, MPDZ_5, O75970
T6 sequence (O75970 695-796, limits assumed, looked up): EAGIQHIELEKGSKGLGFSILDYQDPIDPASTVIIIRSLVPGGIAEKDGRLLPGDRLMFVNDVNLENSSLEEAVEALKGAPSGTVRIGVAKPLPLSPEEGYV

MPP7, Q5T2T1 = target: T7, MPP7, Q5T2T1
T7 sequence (Q5T2T1 134-230, limits assumed, looked up): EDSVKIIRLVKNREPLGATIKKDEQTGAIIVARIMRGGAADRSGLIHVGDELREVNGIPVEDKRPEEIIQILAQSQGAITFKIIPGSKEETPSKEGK

PARD3_3, Q8TEW0 = target: PARD3_3, Q8TEW0
Sequence of PARD3_3, Q8TEW0 (Q8TEW0 582-685): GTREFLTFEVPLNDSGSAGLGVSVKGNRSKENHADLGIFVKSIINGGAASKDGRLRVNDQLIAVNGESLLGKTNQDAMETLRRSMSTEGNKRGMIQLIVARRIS

PCLO, Q9Y6V0 = target: T8, PCLO, Q9Y6V0
T8 sequence (Q9Y6V0 4491-4600, limits assumed, looked up): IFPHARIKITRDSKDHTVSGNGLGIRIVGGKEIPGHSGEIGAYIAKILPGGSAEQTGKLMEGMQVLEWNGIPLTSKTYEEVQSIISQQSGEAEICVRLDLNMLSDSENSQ

RAPGEF6, Q8TEU7 = target: T9, RAPGEF6, Q8TEU7
T9 sequence (Q8TEU7 525-625, limits assumed, looked up): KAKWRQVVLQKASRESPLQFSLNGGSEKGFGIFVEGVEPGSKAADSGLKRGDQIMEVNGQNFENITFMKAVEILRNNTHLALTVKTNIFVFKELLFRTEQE

TJP1_2, Q07157 = target: TJP1_2, Q07157
Sequence of TJP1_2, Q07157 (Q07157 181-274): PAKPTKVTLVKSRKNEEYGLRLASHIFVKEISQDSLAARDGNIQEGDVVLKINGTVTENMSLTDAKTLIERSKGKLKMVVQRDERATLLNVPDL

TJP1_3, Q07157 = target: TJP1_3, Q07157
Sequence of TJP1_3, Q07157 (Q07157 416-512): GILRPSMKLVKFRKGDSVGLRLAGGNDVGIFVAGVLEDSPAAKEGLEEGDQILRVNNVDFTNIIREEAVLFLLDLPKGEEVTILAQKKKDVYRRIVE

TJP2_1, Q9UDY2 = target: TJP2_1, Q9UDY2
Sequence of TJP2_1, Q9UDY2 (Q9UDY2 24-128): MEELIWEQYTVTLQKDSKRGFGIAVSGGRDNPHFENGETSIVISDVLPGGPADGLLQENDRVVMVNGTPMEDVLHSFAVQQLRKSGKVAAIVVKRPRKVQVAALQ

[1] = plain residues with an end cap or a label only (N-terminal biotin on a linker: ttds)
[2] = plain residues with an end cap or a label only (N-terminal biotin on a linker: ahx)

Sequence of ARHGEF12, Q9NZN5-2 (Q9NZN5 other isoform, or with tags, fused parts or gaps): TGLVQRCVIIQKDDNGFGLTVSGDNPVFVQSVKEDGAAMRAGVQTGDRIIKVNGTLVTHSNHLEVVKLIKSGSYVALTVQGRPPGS
Sequence of DLG2_2, Q15700 (Q15700 189-283): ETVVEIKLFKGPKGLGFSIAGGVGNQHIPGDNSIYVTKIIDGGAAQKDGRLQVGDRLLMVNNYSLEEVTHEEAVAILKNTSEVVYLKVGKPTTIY
Sequence of DLG1_2, Q12959 (Q12959 314-412): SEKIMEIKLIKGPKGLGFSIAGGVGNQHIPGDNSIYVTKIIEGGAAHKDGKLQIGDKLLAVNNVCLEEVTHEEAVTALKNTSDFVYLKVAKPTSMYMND

Binder: FVETQHQTQV [FAT3, Q8TDW7]
- pKd (ARHGEF12, Q9NZN5-2; [1]): 3.88
- pKd (DLG1_2, Q12959; [1]): 4.95
- pKd (DLG2_2, Q15700; [1]): 4.5
- pKd (DLG3_2, Q92796; [1]): 4.71
- pKd (DLG4_1, P78352; [1]): 4.36
- pKd (FRMPD1, Q5SYB0; [1]): below the threshold
- pKd (FRMPD3, Q5JV73; [1]): below the threshold
- pKd (GOPC, Q9HD26; [1]): 3.76
- pKd (GORASP2, Q9H8Y8; [1]): below the threshold
- pKd (GRIP1_3, Q9Y3R0; [1]): 3.62
- pKd (GRIP1_7, Q9Y3R0; [1]): below the threshold
- pKd (GRIP2_3, Q9C0E4; [1]): below the threshold
- pKd (Inadl_4, Q8NI35; [1]): below the threshold
- pKd (Inadl_5, Q8NI35; [1]): below the threshold
- pKd (Inadl_6, Q8NI35; [1]): below the threshold
- pKd (Inadl_9, Q8NI35; [1]): 3.61
- pKd (LAP2, Q96RT1; [1]): 3.65
- pKd (LRRC7, Q96NW7; [1]): below the threshold
- pKd (MAGI1_2, Q96QZ7; [1]): 3.93
- pKd (MAGI2_5, Q86UL8; [1]): 4.72
- pKd (MPDZ_5, O75970; [1]): below the threshold
- pKd (MPP7, Q5T2T1; [1]): below the threshold
- pKd (PARD3_3, Q8TEW0; [1]): below the threshold
- pKd (PCLO, Q9Y6V0; [1]): below the threshold
- pKd (RAPGEF6, Q8TEU7; [1]): below the threshold
- pKd (TJP1_2, Q07157; [1]): below the threshold
- pKd (TJP1_3, Q07157; [1]): below the threshold
- pKd (TJP2_1, Q9UDY2; [1]): below the threshold

Binder: SRSRRRETAL [HPV33-E6, P06427]
- pKd (ARHGEF12, Q9NZN5-2; [1]): 4.78
- pKd (DLG1_2, Q12959; [1]): 5.14
- pKd (DLG2_2, Q15700; [1]): 4.57
- pKd (DLG3_2, Q92796; [1]): 4.61
- pKd (DLG4_1, P78352; [1]): 4.57
- pKd (FRMPD1, Q5SYB0; [1]): below the threshold
- pKd (FRMPD3, Q5JV73; [1]): below the threshold
- pKd (GOPC, Q9HD26; [1]): 3.97
- pKd (GORASP2, Q9H8Y8; [1]): 4.26
- pKd (GRIP1_3, Q9Y3R0; [1]): below the threshold
- pKd (GRIP1_7, Q9Y3R0; [1]): below the threshold
- pKd (GRIP2_3, Q9C0E4; [1]): below the threshold
- pKd (Inadl_4, Q8NI35; [1]): below the threshold
- pKd (Inadl_5, Q8NI35; [1]): below the threshold
- pKd (Inadl_6, Q8NI35; [1]): 3.7
- pKd (Inadl_9, Q8NI35; [1]): below the threshold
- pKd (LAP2, Q96RT1; [1]): below the threshold
- pKd (LRRC7, Q96NW7; [1]): 3.68
- pKd (MAGI1_2, Q96QZ7; [1]): 5.67
- pKd (MAGI2_5, Q86UL8; [1]): below the threshold
- pKd (MPDZ_5, O75970; [1]): below the threshold
- pKd (MPP7, Q5T2T1; [1]): below the threshold
- pKd (PARD3_3, Q8TEW0; [1]): below the threshold
- pKd (PCLO, Q9Y6V0; [1]): below the threshold
- pKd (RAPGEF6, Q8TEU7; [1]): below the threshold
- pKd (TJP1_2, Q07157; [1]): below the threshold
- pKd (TJP1_3, Q07157; [1]): below the threshold
- pKd (TJP2_1, Q9UDY2; [1]): 4.01

Binder: YNSFLSVTTV [PDZRN3, Q9UPQ7]
- pKd (ARHGEF12, Q9NZN5-2; [2]): 4.25
- pKd (DLG1_2, Q12959; [2]): 4.19
- pKd (DLG2_2, Q15700; [2]): 3.98
- pKd (DLG3_2, Q92796; [2]): 4.27
- pKd (DLG4_1, P78352; [2]): 3.84
- pKd (FRMPD1, Q5SYB0; [2]): below the threshold
- pKd (FRMPD3, Q5JV73; [2]): below the threshold
- pKd (GOPC, Q9HD26; [2]): 4.1
- pKd (GORASP2, Q9H8Y8; [2]): 4.33
- pKd (GRIP1_3, Q9Y3R0; [2]): below the threshold
- pKd (GRIP1_7, Q9Y3R0; [2]): below the threshold
- pKd (GRIP2_3, Q9C0E4; [2]): below the threshold
- pKd (Inadl_4, Q8NI35; [2]): below the threshold
- pKd (Inadl_5, Q8NI35; [2]): below the threshold
- pKd (Inadl_6, Q8NI35; [2]): below the threshold
- pKd (Inadl_9, Q8NI35; [2]): below the threshold
- pKd (LAP2, Q96RT1; [2]): below the threshold
- pKd (LRRC7, Q96NW7; [2]): below the threshold
- pKd (MAGI1_2, Q96QZ7; [2]): 3.99
- pKd (MAGI2_5, Q86UL8; [2]): 3.9
- pKd (MPDZ_5, O75970; [2]): below the threshold
- pKd (MPP7, Q5T2T1; [2]): below the threshold
- pKd (PARD3_3, Q8TEW0; [2]): below the threshold
- pKd (PCLO, Q9Y6V0; [2]): below the threshold
- pKd (RAPGEF6, Q8TEU7; [2]): below the threshold
- pKd (TJP1_2, Q07157; [2]): below the threshold
- pKd (TJP1_3, Q07157; [2]): below the threshold
- pKd (TJP2_1, Q9UDY2; [2]): below the threshold

Binder: PKMKLNETSF [SHKBP1, Q8TBC3]
- pKd (ARHGEF12, Q9NZN5-2; [2]): below the threshold
- pKd (DLG1_2, Q12959; [2]): below the threshold
- pKd (DLG2_2, Q15700; [2]): below the threshold
- pKd (DLG3_2, Q92796; [2]): below the threshold
- pKd (DLG4_1, P78352; [2]): below the threshold
- pKd (FRMPD1, Q5SYB0; [2]): below the threshold
- pKd (FRMPD3, Q5JV73; [2]): below the threshold
- pKd (GOPC, Q9HD26; [2]): below the threshold
- pKd (GORASP2, Q9H8Y8; [2]): below the threshold
- pKd (GRIP1_3, Q9Y3R0; [2]): below the threshold
- pKd (GRIP1_7, Q9Y3R0; [2]): below the threshold
- pKd (GRIP2_3, Q9C0E4; [2]): below the threshold
- pKd (Inadl_4, Q8NI35; [2]): below the threshold
- pKd (Inadl_5, Q8NI35; [2]): below the threshold
- pKd (Inadl_6, Q8NI35; [2]): below the threshold
- pKd (Inadl_9, Q8NI35; [2]): below the threshold
- pKd (LAP2, Q96RT1; [2]): below the threshold
- pKd (LRRC7, Q96NW7; [2]): below the threshold
- pKd (MAGI1_2, Q96QZ7; [2]): below the threshold
- pKd (MAGI2_5, Q86UL8; [2]): 3.53
- pKd (MPDZ_5, O75970; [2]): below the threshold
- pKd (MPP7, Q5T2T1; [2]): below the threshold
- pKd (PARD3_3, Q8TEW0; [2]): below the threshold
- pKd (PCLO, Q9Y6V0; [2]): below the threshold
- pKd (RAPGEF6, Q8TEU7; [2]): below the threshold
- pKd (TJP1_2, Q07157; [2]): below the threshold
- pKd (TJP1_3, Q07157; [2]): below the threshold
- pKd (TJP2_1, Q9UDY2; [2]): below the threshold
